Data from the Human Domainome abundance scans (Beltran et al. 2025).

B1: Lysine-specific demethylase 5C, residues 319 to 373; numbered along this chain, P41229 (parent)
chain: AQFIESYVCRMCSRGDEDDKLLLCDGCDDNYHIFCLLPPLPEIPKGVWRCPKCVM

Variants of: B1
Assay: abundance fitness (aPCA) (normalised: wild type 0, dead -1); higher = more abundant; growth selection in yeast, the domain comes from the species named
Conditions: Homo sapiens

Abundance fitness, by site and new letter:
C35: K -0.947, S -0.597, I -1, P -0.638, H -0.235, F -0.556, Q -1.03, N -0.842, A -0.83, G -0.9, R -0.41, E -0.794
D25: I -0.224, T -0.016, G -0.081, A 0.158, E -0.246, K -0.199, N -0.293, P -0.355, Q -0.218, V -0.009, M -0.419, Y -0.44, R -0.058, C -0.274, S -0.062, L -0.381, W -0.383, F -0.394
L23: N 0.099, T 0.094, W -0.224, Y -0.141, P -0.017, M 0.235, S 0.148, R 0.166, Q -0.073
F34: H -0.135, G 0.046, E 0.021, L -0.157, T 0.039, P -0.291, K 0.28, N 0.095, R 0.067, Q -0.053, W -0.087, M -0.165, Y 0.191, S -0.029, A -0.162, D -0.149, V -0.078
C27: D -0.646, I -0.923, T -0.694, L -0.842, S -0.823, H -0.905, V -0.752, N -0.806, M -0.507, Q -0.522, R -0.759, G -0.825, A -0.921, Y -0.779, W -1.06
Y31: E -0.538, N -0.679, M -0.074, F -0.163, A -0.476, L -0.589, R -0.641, W -0.364, P -0.776, Q -0.727, I -0.261, C -0.514, S -0.93, K -0.702, T -0.678, V -0.113, D -0.776
D29: R 0.004, A 0.06, Y 0.036, E 0.017, V -0.228, L -0.101, G -0.077, N 0.274, F -0.128, M -0.237
N30: L -0.238, R 0.071, Q 0.157, G 0.052, C 0.006, I 0.219, P -0.088, E -0.052, H -0.176, S -0.068, F -0.077, Y -0.143, M -0.206, D -0.774, K 0.098, V 0.152, W -0.117
C24: Y -0.812
H32: M -1.02, F -0.697, I -0.859, Y -0.972, E -0.945, K -0.97, P -0.853, T -0.898, N -0.672, C -0.677, A -0.756, S -0.984, Q -0.756, R -0.675, W -0.881, G -1.01, V -0.723
G26: A 0.161, D -0.034, S -0.159, K 0.133, Y -0.341, L -0.071, M -0.178, T 0.004, Q -0.129, C 0.017, I -0.21, H 0.092, F -0.047, V -0.217, P -0.799, N -0.105, W -0.375
D28: K -0.516, W -0.244, T -0.494, E -0.102, N 0.046, P 0.259, S 0.148, C -0.359, I 0.327, M -0.411, R 0.225, V -0.527, L -0.294, A 0.092
I33: L -0.496, K -0.423, R -0.381
